In patent US20050064518A1:

How the values were obtained:
monoclonal antibody 4E7 = experiment: ELISA competition: shed CA 125/O772P at 25-fold excess against 4E7 binding to plate-bound O772P 3-repeat
monoclonal antibody 7C6 = experiment: ELISA competition: shed CA 125/O772P at 25-fold excess against 7C6 binding to plate-bound O772P 3-repeat
monoclonal antibody 7H1 = experiment: ELISA competition: shed CA 125/O772P at 25-fold excess against 7H1 binding to plate-bound O772P 3-repeat
monoclonal antibody 8A1 = experiment: ELISA competition: shed CA 125/O772P at 25-fold excess against 8A1 binding to plate-bound O772P 3-repeat
monoclonal antibody 8B5 = experiment: ELISA competition: shed CA 125/O772P at 25-fold excess against 8B5 binding to plate-bound O772P 3-repeat
monoclonal antibody 8C3 = experiment: ELISA competition: shed CA 125/O772P at 25-fold excess against 8C3 binding to plate-bound O772P 3-repeat
monoclonal antibody 8E3 = experiment: ELISA competition: shed CA 125/O772P at 25-fold excess against 8E3 binding to plate-bound O772P 3-repeat
monoclonal antibody 8G9 = experiment: ELISA competition: shed CA 125/O772P at 25-fold excess against 8G9 binding to plate-bound O772P 3-repeat
M11 = experiment: flow cytometry competition (representative plot): shed CA 125/O772P against M11 binding to OVCAR-3 cells
monoclonal antibody 15C9 = experiment: ELISA competition: shed CA 125/O772P at 25-fold excess against 15C9 binding to plate-bound O772P 3-repeat
monoclonal antibody 16C7 = experiment: ELISA competition: shed CA 125/O772P at 25-fold excess against 16C7 binding to plate-bound O772P 3-repeat
monoclonal antibody 16H9 = experiment: ELISA competition: shed CA 125/O772P at 25-fold excess against 16H9 binding to plate-bound O772P 3-repeat
monoclonal antibody 7A11 = experiment: ELISA competition: shed CA 125/O772P at 25-fold excess against 7A11 binding to plate-bound O772P 3-repeat
monoclonal antibody 7F10 = experiment: ELISA competition: shed CA 125/O772P at 25-fold excess against 7F10 binding to plate-bound O772P 3-repeat
monoclonal antibody 7G10 = experiment: ELISA competition: shed CA 125/O772P at 25-fold excess against 7G10 binding to plate-bound O772P 3-repeat
[1] = target: monoclonal antibody 325.1; experiment: ELISA competition: shed CA 125/O772P at 25-fold excess against 325.1 binding to plate-bound O772P 3-repeat
[2] = target: monoclonal antibody 446.1; experiment: ELISA competition: shed CA 125/O772P at 25-fold excess against 446.1 binding to plate-bound O772P 3-repeat
[3] = target: monoclonal antibody 621.1; experiment: ELISA competition: shed CA 125/O772P at 25-fold excess against 621.1 binding to plate-bound O772P 3-repeat
[4] = target: monoclonal antibody 633.1; experiment: ELISA competition: shed CA 125/O772P at 25-fold excess against 633.1 binding to plate-bound O772P 3-repeat
[5] = target: monoclonal antibody 654.1; experiment: ELISA competition: shed CA 125/O772P at 25-fold excess against 654.1 binding to plate-bound O772P 3-repeat
[6] = target: monoclonal antibody 725.1; experiment: ELISA competition: shed CA 125/O772P at 25-fold excess against 725.1 binding to plate-bound O772P 3-repeat
[7] = target: monoclonal antibody 117.1; experiment: flow cytometry competition (representative plot): shed CA 125/O772P against 117.1 binding to OVCAR-3 cells
OC125 = experiment: ELISA competition: shed CA 125/O772P at 25-fold w/w excess against antibody binding to plate-bound O772P 3-repeat
[8] = target: monoclonal antibody 117.1; experiment: as above
[9] = target: monoclonal antibody 368.1; experiment: as above
[10] = target: monoclonal antibody 501.1; experiment: as above
[11] = target: monoclonal antibody 776.1; experiment: as above
Chain of monoclonal antibody 776.1 (chain, as listed by the source, chain 1 of 2): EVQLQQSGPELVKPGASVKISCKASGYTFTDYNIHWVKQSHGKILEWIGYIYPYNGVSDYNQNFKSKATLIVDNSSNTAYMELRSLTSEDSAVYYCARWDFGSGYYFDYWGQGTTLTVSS
Chain of monoclonal antibody 776.1 (chain, as listed by the source, chain 2 of 2): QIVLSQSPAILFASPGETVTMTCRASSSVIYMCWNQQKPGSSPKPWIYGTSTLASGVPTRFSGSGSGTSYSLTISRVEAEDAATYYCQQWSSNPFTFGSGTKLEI

Chain of monoclonal antibody 117.1 (chain, as listed by the source, chain 1 of 2): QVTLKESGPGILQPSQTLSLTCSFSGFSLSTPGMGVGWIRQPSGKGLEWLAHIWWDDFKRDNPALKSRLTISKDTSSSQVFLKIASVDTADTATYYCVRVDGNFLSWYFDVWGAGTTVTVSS
Chain of monoclonal antibody 117.1 (chain, as listed by the source, chain 2 of 2): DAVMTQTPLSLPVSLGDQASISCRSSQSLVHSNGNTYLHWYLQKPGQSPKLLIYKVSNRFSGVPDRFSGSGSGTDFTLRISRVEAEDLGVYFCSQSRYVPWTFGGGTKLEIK
Chain of OC125 (chain, as listed by the source, chain 1 of 2): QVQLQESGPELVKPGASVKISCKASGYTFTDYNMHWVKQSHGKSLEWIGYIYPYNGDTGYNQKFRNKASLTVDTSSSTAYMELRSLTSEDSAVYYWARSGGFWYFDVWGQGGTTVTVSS
Chain of OC125 (chain, as listed by the source, chain 2 of 2): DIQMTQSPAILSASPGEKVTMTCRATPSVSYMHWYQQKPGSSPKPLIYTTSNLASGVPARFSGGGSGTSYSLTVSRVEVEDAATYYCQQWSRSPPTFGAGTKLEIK
Chain of monoclonal antibody 501.1 (chain, as listed by the source, chain 1 of 2): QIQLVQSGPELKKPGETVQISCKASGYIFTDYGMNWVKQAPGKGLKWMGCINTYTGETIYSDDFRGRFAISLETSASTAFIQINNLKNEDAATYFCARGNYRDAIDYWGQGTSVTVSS
Chain of monoclonal antibody 501.1 (chain, as listed by the source, chain 2 of 2): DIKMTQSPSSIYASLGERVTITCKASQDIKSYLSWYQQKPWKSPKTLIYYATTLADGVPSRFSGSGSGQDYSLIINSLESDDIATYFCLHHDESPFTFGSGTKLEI
Chain of monoclonal antibody 725.1 (chain, as listed by the source, chain 1 of 2): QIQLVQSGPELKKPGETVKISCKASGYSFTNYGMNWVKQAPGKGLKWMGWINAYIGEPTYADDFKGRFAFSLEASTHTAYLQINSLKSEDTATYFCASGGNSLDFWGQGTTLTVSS
Chain of monoclonal antibody 725.1 (chain, as listed by the source, chain 2 of 2): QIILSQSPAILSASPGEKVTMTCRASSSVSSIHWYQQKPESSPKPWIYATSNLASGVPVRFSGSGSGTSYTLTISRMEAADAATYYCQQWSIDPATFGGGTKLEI
Chain of monoclonal antibody 368.1 (chain, as listed by the source, chain 1 of 2): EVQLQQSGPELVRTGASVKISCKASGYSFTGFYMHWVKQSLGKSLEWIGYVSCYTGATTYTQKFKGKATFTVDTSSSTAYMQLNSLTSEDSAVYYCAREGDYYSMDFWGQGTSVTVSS
Chain of monoclonal antibody 368.1 (chain, as listed by the source, chain 2 of 2): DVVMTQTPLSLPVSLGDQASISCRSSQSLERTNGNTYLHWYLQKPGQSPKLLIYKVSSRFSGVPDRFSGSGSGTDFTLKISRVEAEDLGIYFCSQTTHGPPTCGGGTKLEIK
Chain of monoclonal antibody 16H9 (chain, as listed by the source, chain 1 of 2): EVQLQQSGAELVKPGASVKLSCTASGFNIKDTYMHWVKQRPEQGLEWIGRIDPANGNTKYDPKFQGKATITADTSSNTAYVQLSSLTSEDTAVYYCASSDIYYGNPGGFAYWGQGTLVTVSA
Chain of monoclonal antibody 16H9 (chain, as listed by the source, chain 2 of 2): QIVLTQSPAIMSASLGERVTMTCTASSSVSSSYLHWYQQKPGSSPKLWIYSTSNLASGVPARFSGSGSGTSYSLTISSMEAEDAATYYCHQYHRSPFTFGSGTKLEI

shed CA 125/O772P polypeptide, Q8WXI7 1-14401
% inh. binding (monoclonal antibody 4E7): 7%
% inh. binding (monoclonal antibody 7C6): 2%
% inh. binding (monoclonal antibody 7H1): 4%
% inh. binding (monoclonal antibody 8A1): 8%
% inh. binding (monoclonal antibody 8B5): 6%
% inh. binding (monoclonal antibody 8C3): 5%
% inh. binding (monoclonal antibody 8E3): 4%
% inh. binding (monoclonal antibody 8G9): 7%
IC50 (M11): 3 µg/mL
% inh. binding (monoclonal antibody 15C9): 5%
% inh. binding (monoclonal antibody 16C7): 3%
% inh. binding (monoclonal antibody 16H9): 0%
% inh. binding (monoclonal antibody 7A11): 5%
% inh. binding (monoclonal antibody 7F10): 6%
% inh. binding (monoclonal antibody 7G10): 3%
% inh. binding [1]: 2%
% inh. binding [2]: 7%
% inh. binding [3]: 2%
% inh. binding [4]: 7%
% inh. binding [5]: 9%
% inh. binding [6]: 7%
IC50 [7]: > 1000 µg/mL
percent inhibition of binding (OC125): 95%
percent inhibition of binding [8]: 11%
percent inhibition of binding [9]: 0%
percent inhibition of binding [10]: 15%
percent inhibition of binding [11]: 17%
